Data: publication PMC4347646 (The Journal of Cell Biology, 2015)

Target: T1, Rab13 Q67L (in the Rab13 biosensor) (human, UniProt P51153 1-203, Q67L)
T1 sequence: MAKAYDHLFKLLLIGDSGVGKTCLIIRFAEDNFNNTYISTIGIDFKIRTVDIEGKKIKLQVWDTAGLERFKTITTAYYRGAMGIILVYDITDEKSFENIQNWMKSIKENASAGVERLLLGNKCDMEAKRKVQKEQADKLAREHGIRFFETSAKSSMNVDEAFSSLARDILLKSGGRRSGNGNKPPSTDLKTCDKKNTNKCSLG
Assay: FRET or BRET

B1: RBD of MICAL-L2 (in the Rab13 biosensor) (domain or fragment)
chain: not shown
FRET/mCer ratio, higher than in the Rab13 T22N biosensor: 53%
